Source: publication PMC5036643
Like-named read-outs stand apart in the source and are kept apart here.

What was measured:
Assay in all cases: single-molecule bead assay
[1] = molecular target: Microtubules of porcine brain tubulin, tetramethylrhodamine-labelled, taxol-stabilised (porcine) (UniProt P02550)
[2] = molecular target: Microtubules of porcine brain tubulin, tetramethylrhodamine-labelled, taxol-stabilised (porcine) (UniProt P02550); remark: listed apart in the source
[3] = molecular target: Microtubules of porcine brain tubulin, tetramethylrhodamine-labelled, taxol-stabilised (porcine) (UniProt P02550); remark: listed apart in the source
[4] = molecular target: Microtubules of porcine brain tubulin, tetramethylrhodamine-labelled, taxol-stabilised (porcine) (UniProt P02550); remark: listed apart in the source
[5] = molecular target: Microtubules of porcine brain tubulin, tetramethylrhodamine-labelled, taxol-stabilised (porcine) (UniProt P02550); remark: listed apart in the source
[6] = molecular target: Microtubules of porcine brain tubulin, tetramethylrhodamine-labelled, taxol-stabilised (porcine) (UniProt P02550); remark: listed apart in the source
[7] = molecular target: Microtubules of porcine brain tubulin, tetramethylrhodamine-labelled, taxol-stabilised (porcine) (UniProt P02550); remark: listed apart in the source
[8] = molecular target: Microtubules of porcine brain tubulin, tetramethylrhodamine-labelled, taxol-stabilised (porcine) (UniProt P02550); remark: listed apart in the source

average duration (time between attachment and detachment) [1]: 1.11 s
average duration (time between attachment and detachment) [2]: 1.01 s
average duration (time between attachment and detachment) [3]: 0.92 s
average duration (time between attachment and detachment) [4]: 0.69 s
average duration (time between attachment and detachment) [5]: 1.19 s
average duration (time between attachment and detachment) [6]: 0.8 s
average duration (time between attachment and detachment) [7]: 1.53 s
average duration (time between attachment and detachment) [8]: 1.03 s
Substance: Conventional kinesin (native, from bovine brain) (complex)
